The target of one test is T1, VEGF (UniProt P15692-4 27-191, limits assumed).
T1 construct: Negative control protein; also called negative control protein VEGF
As to the kind of experiment: phage binding assay on proteins coated onto microtiter wells.

For test [1], the target named is T2, bovine serum albumin (BSA) (bovine, UniProt P02769 25-607).
T2 construct: Negative control protein
As to the kind of experiment: phage binding assay on immobilized proteins.

The target in test [2] is T3, epidermal growth factor (EGF) (UniProt P01133 971-1023).
T3 construct: Bought
T3 sequence (P01133 971-1023 limits assumed): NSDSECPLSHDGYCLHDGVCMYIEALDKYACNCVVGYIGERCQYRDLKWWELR
As to the kind of experiment: phage binding assay on proteins coated onto microtiter wells.

Test [3] concerns the target T4, transforming growth factor alpha (TGF-α) (UniProt P01135 40-89).
T4 construct: Bought; also called Tumor Growth Factor alpha
The description is as above.

Ends that are not written are not given here.

T2 sequence (P02769 25-607 limits assumed): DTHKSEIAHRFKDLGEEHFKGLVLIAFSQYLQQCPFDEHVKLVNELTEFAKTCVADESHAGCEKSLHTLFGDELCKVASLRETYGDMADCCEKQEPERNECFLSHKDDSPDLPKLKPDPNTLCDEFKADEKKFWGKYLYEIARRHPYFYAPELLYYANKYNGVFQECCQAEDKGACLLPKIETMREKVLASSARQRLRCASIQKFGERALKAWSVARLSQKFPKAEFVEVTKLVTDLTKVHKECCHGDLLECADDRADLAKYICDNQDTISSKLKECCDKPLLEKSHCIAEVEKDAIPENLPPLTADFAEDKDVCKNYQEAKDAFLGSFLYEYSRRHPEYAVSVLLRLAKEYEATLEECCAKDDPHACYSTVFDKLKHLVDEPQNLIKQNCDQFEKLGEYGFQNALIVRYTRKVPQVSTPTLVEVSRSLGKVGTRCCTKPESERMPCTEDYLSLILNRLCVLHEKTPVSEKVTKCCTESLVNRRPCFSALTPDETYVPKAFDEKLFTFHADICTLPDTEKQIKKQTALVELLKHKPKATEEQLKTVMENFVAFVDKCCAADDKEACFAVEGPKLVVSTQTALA
T1 sequence (P15692 other isoform, or with tags, fused parts or gaps limits assumed): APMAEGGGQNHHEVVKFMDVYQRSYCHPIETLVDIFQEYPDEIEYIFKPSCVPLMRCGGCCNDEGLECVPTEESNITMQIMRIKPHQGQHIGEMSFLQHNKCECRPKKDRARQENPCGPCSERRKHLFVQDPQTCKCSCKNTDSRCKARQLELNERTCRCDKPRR

B1: CVRAC-displaying phage (peptide)
peptide: CVRAC
modifications: not fully specified (bridges); also: cyclic, ring type not given here, displayed on phage
notes: the phage coat protein that carries the insert is not described; also called CVRAC-phage; phage displaying the cyclic peptide CVRAC
In the case of B1, the binding result (in the test with VEGF; in test [1]) was “no binding” throughout.

B2: CVAAC-displaying phage (peptide)
peptide: CVAAC
modifications: not fully specified (bridges); also: cyclic, ring type not given here, displayed on phage
notes: coat protein fusion not described; also called CVAAC-phage; alanine scanning control
With B2, the binding result in test [2] and in test [3] was “no binding” throughout.

For the origin of these results see patent publication US20130059793A1 (University of Texas, published 2013).
